According to article PMC4414485:

Tests used:
[1] = target: hERG1a(R56Q).Citrine (human) (UniProt Q12809)
[2] = target: hERG1a(R56Q).Citrine (human) (UniProt Q12809); remark: listed apart in the source

## isolated eag domain of hERG fused to CFP (i-eag.CFP) (domain or fragment)
[1]
  V1/2 of steady-state inactivation of hERG R56Q channels with co-expressed i-eag in HEK293 cells (hERG R56Q alone -13.6 mV, WT hERG -32.2 mV): -24.7 mV
[2]
  fast deactivation time constant (tau fast) of hERG1a(R56Q) tail currents with co-expressed i-eag in HEK293 cells, whole-cell patch clamp, -120 to -20 mV (slower than hERG1a(R56Q) alone): 307 ms
  fast deactivation time constant (tau fast) of hERG1a(R56Q) tail currents with co-expressed i-eag in hiPSC-CMs, whole-cell patch clamp, -120 to -20 mV (slower than hERG1a(R56Q) alone): 326 ms
  slow deactivation time constant (tau slow) of hERG1a(R56Q) tail currents with co-expressed i-eag in HEK293 cells, whole-cell patch clamp, -120 to -20 mV (slower than hERG1a(R56Q) alone): 1780 ms
  slow deactivation time constant (tau slow) of hERG1a(R56Q) tail currents with co-expressed i-eag in hiPSC-CMs, whole-cell patch clamp, -120 to -20 mV (slower than hERG1a(R56Q) alone): 2340 ms
